Data from EP4138793B1, “NOVEL NON-PROTEINIC FURIN INHIBITOR” (priority 2020, dated 2021).
The star is where a group is joined. Decanoyl = CCCCCCCCCC(=O)*; CH2Cl = ClC*

Biological target: furine humaine recombinante (Homo sapiens, UniProt P09958)
Test: Inhibition of furin enzyme activity (cleavage of a fluorescent substrate)
Format: biochemical
Settings: reference inhibitor tested at 100 nm
Experimental: L'expérience est réalisée en utilisant une furine humaine recombinante, qui catalyse le clivage d'un substrat spécifique fluorescent.
Le décanoyl-Arg-Val-Lys-Arg-CMK à 100 nm a été utilisé comme inhibiteur de référence de l'activité de la furine.
La furine est pré-incubée pendant 10 minutes à température ambiante en l'absence (contrôle) ou en présence du produit de référence ou de concentrations croissantes du composé testé : «Amyrines purifiées de Protium heptaphyllum»; 25 ppm; 250 ppm et 1000 ppm (v / v). Le produit «Amyrines purifiées de Protium heptaphyllum» , AMY à 1000 PPM correspond à une solution 0,5% en volume du produit HTRE commercialisé par la société Ephyla.
À la fin de l'étape de pré-incubation, un substrat de furine a été ajouté et les conditions expérimentales ont été incubées à nouveau à température ambiante à l'abri de la lumière pendant 5 minutes. Toutes les expériences ont été réalisées en triplicate.
Le composé d'essai " Amyrines purifiées de Protium heptaphyllum " pré-solubilisé à 10 000 ppm dans du DMSO. La solution a ensuite été diluée dans du tampon d'essai afin d'atteindre les concentrations décrite ci-dessus.
Le clivage du substrat fluorescent de furine a été suivi pendant 5 minutes après l'addition du substrat en lisant la fluorescence à 485 nm / 535 nm.
Les résultats sont exprimés en RFU (unités fluorescentes relatives) +/- S.D. (Écart-type).

furine humaine recombinante, sequence (P09958 108-794): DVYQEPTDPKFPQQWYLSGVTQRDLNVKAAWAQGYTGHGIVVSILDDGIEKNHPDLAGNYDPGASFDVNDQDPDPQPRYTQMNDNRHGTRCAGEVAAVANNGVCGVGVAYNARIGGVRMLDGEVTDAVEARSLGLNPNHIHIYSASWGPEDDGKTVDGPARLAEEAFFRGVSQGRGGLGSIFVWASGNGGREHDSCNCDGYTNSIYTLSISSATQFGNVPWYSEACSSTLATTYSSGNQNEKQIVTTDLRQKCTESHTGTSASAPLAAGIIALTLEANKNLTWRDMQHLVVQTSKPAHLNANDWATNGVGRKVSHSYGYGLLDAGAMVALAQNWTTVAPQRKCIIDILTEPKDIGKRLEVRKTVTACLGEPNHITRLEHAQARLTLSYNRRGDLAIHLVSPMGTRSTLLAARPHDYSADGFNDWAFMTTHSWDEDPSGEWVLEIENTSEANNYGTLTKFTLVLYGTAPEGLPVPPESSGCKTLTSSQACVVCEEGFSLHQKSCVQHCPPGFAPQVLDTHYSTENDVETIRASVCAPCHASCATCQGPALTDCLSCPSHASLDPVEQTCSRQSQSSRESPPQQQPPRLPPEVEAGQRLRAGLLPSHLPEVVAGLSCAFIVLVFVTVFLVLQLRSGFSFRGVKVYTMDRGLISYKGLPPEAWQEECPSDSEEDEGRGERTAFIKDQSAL

Decanoyl-Arg-Val-Lys-Arg-CMK (Decanoyl-RVKR-CH2Cl)
inhibition de l'activité de la furine: 97,9%
